The experiment deals with Parent. Put plainly: antigen titration binding curve (Norm. RFU).

B1: Mouse (receptor)
chain: FKVTTPYSLYVCPEGQNATLTCRILGPVSKGHDVTIYKTWYLSSRGEVQMCKEHRPIRNFTLQHLQHHGSHLKANASHDQPQKHGLELASDHHGNFSITLRNVTPRDSGLYCCLVIELKNHHPEQRFYGSMELQVQAGKGSGSTCMASNEQDSDSITAA
In the case of B1, the Kd (as a rule, the equilibrium constant for the complex coming apart) came to 165 nM.

Source of the values: patent US20220144953A1 (published 2022).
